What was measured:
[1] = molecular target: SARS-CoV-2 Spike S2-hFc (SARS-CoV-2), P0DTC2; assay: Octet, Fab as analyte over S2-hFc on AHC sensor; conditions: remark: other sources report otherwise
[2] = molecular target: SARS-CoV-2 Spike S2-hFc (SARS-CoV-2), P0DTC2; assay: Octet BLI; Fab as analyte over S2-hFc on AHC sensors; steady-state analysis; conditions: remark: other sources report otherwise

B1: 2-A6 Fab (Fab, V domains shown)
VH: QVTLRESGPALVKPTQTLTLTCTFSGFSLNTRGMSVSWIRQPPGKALEWLALIDWEDDKFYRTSLMTRLTISKDIFKNQVVLTMTNVDPVDTGTYYCARTYSVGVKYFGMDVWGQGTTVTVSS
VL: SSELTQDPAVSVALGQTVRITCQGDSLRNYYASWYRQEPGQAPILLIYGGNYRPSGIPDRFSGSSSGNTASLTITGAQAEDEADYYCNSRDSSGNHVVFGGGTKLTVL
Which Kd [1] does the source give for B1 here?
The Kd was 900 nM.

And the Kd [2]?
Its Kd is 913 nM.

— patent publication US20230250158A1
